From article PMC12297318, “Removal of promoter CpG methylation by epigenome editing reverses HBG silencing”

Key:
[1] = target: MBD2sc Y178F (UniProt Q9UBB5 150-393+Q86YP4:138-178, Y178F;internal_change); assay: EMSA; Protein at 50x molar excess over probe, 10 min at room temperature; binding buffer not stated (protein storage: 10 mM Tris-HCl pH 7.5, 150 mM NaCl, 1 mM EDTA, 1 mM PMSF, 10% glycerol); 6% native PAGE in TBE (45 mM Tris, 45 mM boric acid, 1 mM EDTA) at 4 C; settings: protein: recombinant; tags: pET32a vector tags (Ni-NTA purified); label: 32P 5' end of antisense strand; blunt
[2] = target: MBD2sc WT (MBD2 MBD-IDR-CC fused to GATAD2A CC) (UniProt Q9UBB5 150-393+Q86YP4:138-178, internal_change); assay: as above; settings: protein: recombinant; tags: pET32a vector tags (Ni-NTA purified); label: 32P 5' end of antisense strand; blunt
Sequence of MBD2sc WT (MBD2 MBD-IDR-CC fused to GATAD2A CC) (Q9UBB5 other isoform, or with tags, fused parts or gaps): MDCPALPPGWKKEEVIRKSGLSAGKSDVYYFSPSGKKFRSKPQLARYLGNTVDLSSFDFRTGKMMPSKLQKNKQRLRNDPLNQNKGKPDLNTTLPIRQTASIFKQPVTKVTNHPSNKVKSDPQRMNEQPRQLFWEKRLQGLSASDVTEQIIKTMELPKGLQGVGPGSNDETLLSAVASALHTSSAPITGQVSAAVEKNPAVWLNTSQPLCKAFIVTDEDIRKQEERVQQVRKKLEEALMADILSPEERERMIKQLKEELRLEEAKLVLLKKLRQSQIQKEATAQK

Sequence of MBD2sc Y178F (Q9UBB5 other isoform, or with tags, fused parts or gaps Y178F/| Y178F Y178F): as the sequence (Q9UBB5 other isoform, or with tags, fused parts or gaps) above, with Y29F counted along it

B1: HBG -53/-50 CpG sites, methylated (dsDNA)
DNA 1: TGAGGCCAGGGGCCGGCGGCTGGCTAGGGAT
DNA 2: ATCCCTAGCCAGCCGCCGGCCCCTGGCCTCA
modifications: 5-methyl-dC at positions 14 and 17 of sense and 14 and 17 of antisense
B1: no binding [1]; binds [2].

B2: HBG -53/-50 CpG sites, unmethylated (dsDNA)
DNA 1: TGAGGCCAGGGGCCGGCGGCTGGCTAGGGAT
DNA 2: ATCCCTAGCCAGCCGCCGGCCCCTGGCCTCA
B2: no binding [2].

B3: BCAT1 promoter CpG sites, methylated (dsDNA)
DNA 1: CCGGCCCTCTCGCGGCGGAGACTCGCGACCTAGCGGATTGCATCAGCAGGAAGAC
DNA 2: GTCTTCCTGCTGATGCAATCCGCTAGGTCGCGAGTCTCCGCCGCGAGAGGGCCGG
modifications: 5-methyl-dC at sense positions 2,11,13,16,24,26,34 and antisense positions 21,29,31,39,42,44,53
B3: no binding [1]; binds [2].

B4: BCAT1 promoter CpG sites, unmethylated (dsDNA)
DNA 1: CCGGCCCTCTCGCGGCGGAGACTCGCGACCTAGCGGATTGCATCAGCAGGAAGAC
DNA 2: GTCTTCCTGCTGATGCAATCCGCTAGGTCGCGAGTCTCCGCCGCGAGAGGGCCGG
B4: no binding [2].
